Substrate: CC(C)(O/N=C(\C(=O)N[C@@H]1C(=O)N2C(C(=O)[O-])=C(C[n+]3ccccc3)CS[C@H]12)c1csc(N)n1)C(=O)O
Experiment: Substrate activity at Enterobacter cloacae beta lactamase P99 expressed in Escherichia coli AS226-51 cells by UV spectrophotometric method

B1: Beta-lactamase (Enterobacter cloacae), P05364 (protein)
chain: MMRKSLCCALLLGISCSALATPVSEKQLAEVVANTITPLMKAQSVPGMAVAVIYQGKPHYYTFGKADIAANKPVTPQTLFELGSISKTFTGVLGGDAIARGEISLDDAVTRYWPQLTGKQWQGIRMLDLATYTAGGLPLQVPDEVTDNASLLRFYQNWQPQWKPGTTRLYANASIGLFGALAVKPSGMPYEQAMTTRVLKPLKLDHTWINVPKAEEAHYAWGYRDGKAVRVSPGMLDAQAYGVKTNVQDMANWVMANMAPENVADASLKQGIALAQSRYWRIGSMYQGLGWEMLNWPVEANTVVEGSDSKVALAPLPVAEVNPPAPPVKASWVHKTGSTGGFGSYVAFIPEKQIGIVMLANTSYPNPARVEAAYHILEALQ
  kcat: 7 ×10⁻³ /s

Source: ChEMBL document CHEMBL3856203, “β-Lactamases: Why and How” (J Med Chem, 2016)
